Assay results reported in the nanobody polyreactivity screen of Harvey et al. (2022).

Assay: yeast display, Sf9 membrane polyspecificity reagent, FACS + sequencing; frameworks hold sequencing errors
How it was run: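 Sorting gates, low and high (top ~1%), were placed on anti-HA fluorescence to track expression and on streptavidin fluorescence to track reagent binding. A clone's polyreactivity label is taken from the gate it came out of. The reagent was 10% biotinylated, detergent-solubilized Sf9 membrane, applied for 1 hour at 4 °C to galactose-induced yeast display cells.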

Sequence	polyreactivity (PSR sort gate)
QVQLVESGGGLVQAGGSLRLSCAASGSIFYYNAMGWYRQAPGKERELVAAISFRASSTYYADSVKGRFTISRDNAKNTVYLQMNSLKPEDTAVYYCASSHWHYIPRHHPYGDDYCGQGTQVTVSS	low polyreactivity
QVQLVESGGGLVQAGGSLRLSCAASGSIFYYNAMGWYRQAPGKERELVAAISWSGGSTYYADSVKGRFTISRDKAKNTVYLQMNSLKPEDTAVYYCNAVGWYTYFYGSRKYNSWGQGTQVTVSS	low polyreactivity
QVQLVESGGGLVQAGGSLRLSCAASGSIFYYNAMGWYRQEPGKERELVATITSAVSTNYADSVKGRFTISRDNAKNTVYLQMNSLKPQDTAVYYCAADDYQVQYDYWGQGTQVTVSS	low polyreactivity
QVQLVESGGGLVQAGGSLRLSCAASGSIFYYNMGWYRPAPGKERELVAAISGGGGSTFYADSVKGRFTISRDNAKNTVYLQMNSLKPEDTAVYYCAARATTRRKKRMDYWGQGTQVTVSS	high polyreactivity
QVQLVESGGGLVQAGGSLRLSCAASGSIFYYYAMGWSRQAPGKERELVAGINSGDSTYYADSVKGRFTISRDNAKNTVYLQMNRLKPEYTAVYYCAASADWWYEYWGQGTEVTVSS	low polyreactivity
QVQLVESGGGLVQAGGSLRLSCAASGSIFYYYAMGWYRQAPGKERELVAAINGGDGRTYYADSVKGRFTISRDNGKNTVYLQMNSLKPEDTAVYYCAADWPGYSAYYYWGQGTQVTVSS	low polyreactivity
QVQLVESGGGLVQAGGSLRLSCAASGSIFYYYAMGWYRQAPGKERELVAAITSGGSTYYADSVKGRFTISRDNAKNTVYLQMNSLKPEDTAVYYCAAYGYYRGYPFHWYDYWGQGTQVTVSS	high polyreactivity
QVQLVESGGGLVQAGGSLRLSCAASGSIFYYYAMGWYRQAPGKERELVAAITVSGGRTYYADSVKGRFTISRDNAKNTVYLQMNSLKPEATAVYYCAAQIYGKYDYWGQGTQVTVSS	low polyreactivity
QVQLVESGGGLVQAGGSLRLSCAASGSIFYYYAMGWYRQAPGKERELVADISRSGTSTYYADSVKGRFTISRDNAKNTVYLQMNSLKPEDTAVYYCNVLRVKSITYLMDYWGQGTQVTVSS	high polyreactivity
QVQLVESGGGLVQAGGSLRLSCAASGSIFYYYAMGWYRQAPGKERELVADITRDCGTTYYADSVKGRFTISRDNAKNTVYLQMNSLKPEDTAVYYCNARSIVFDWSAGRAKMDYWGQGTQVTVSS	low polyreactivity
QVQLVESGGGLVQAGGSLRLSCAASGSIFYYYARGWYRQAPGKERELVAAITSGGRTKYADSVKGRFTISRDNAKNTVNLQMNSLKPEDTAVYYCNARNYGKYRTNDYWGQGTQVTVSS	high polyreactivity
QVQLVESGGGLVQAGGSLRLSCAASGSIFYYYSMGWYRQAPGKERELVATISSTTTTYADSVKGRFTISRDNPINTVYLNMNSMKPEDTAVYYCSFDYWGHGTQVTVSS	low polyreactivity
QVQLVESGGGLVQAGGSLRLSCAASGSIIDLNAMGWYRKAHGKERELVAAISSGGITYYADSVKGRFTISRDNAKNTVYLHMNSLKPEDTAVYYCAARYNHYFSLYDYWGQGTQVTVSS	high polyreactivity
QVQLVESGGGLVQAGGSLRLSCAASGSIIDYNAMGWYRQAPGKERELVAAIDWSGSSTYYADSVKGRFTISRDNAKNTVYLQMNSLKPEDTAVYYCNALAYYGMDYWGQGTQVTVSS	low polyreactivity
QVQLVESGGGLVQAGGSLRLSCAASGSIIFAYAMGWYRQAPGKERELVAAITTGVSTNYADSVKGRFTISRDNAKNTVYLQMNSLKPEDTAVYYCNADVDYGFDAGVAVQVVIHDYWGQGTQVTVSS	low polyreactivity
QVQLVESGGGLVQAGGSLRLSCAASGSIIFTNTMGWYRQAPGKERELVAAITSGGSTYYADSVKGRFTISRDNAKNTVYLQMNSLKPEDTAVYYCAAAISYYGKYYRLDYWGQGTQVTVSS	low polyreactivity
QVQLVESGGGLVQAGGSLRLSCAASGSIIFVYAMGCYRQAPGKERELVAGINSSGTSTYADSVKGRFTISRDNAKNTVYLQMNSLKPEDTAVYYCAARWFYYRWAYDYWGQGTQVTVSS	low polyreactivity
QVQLVESGGGLVQAGGSLRLSCAASGSIIGIYAMGWYRQAPGKEREMVAAINRGGSTYYADSVKGRFTISRDNAKNTVYLQMNSLKPEDTAVYYCSASPPYNTEFDYWGQGTQVTVSS	low polyreactivity
QVQLVESGGGLVQAGGSLRLSCAASGSIIGTYAMGWYRQAPGKERELVAAISSSGGRTYYADSVKGRFTISRDNAKNTVYLQMNILKTEYTAVYYCNTRPGTVFRAGGDYWGQGTQVTVSS	high polyreactivity
QVQLVESGGGLVQAGGSLRLSCAASGSIIGVNAMGWYRQAPGKERELVAAMSSTGGSTYYADSVKGRFSISRDNAKNTVFLQMNRLKPEDTAVYYCHTDYSKSIGDGYAGFDYWGQGTQVTVSS	low polyreactivity
QVQLVESGGGLVQAGGSLRLSCAASGSIIHFYAMGWYRQAPGKERELVAAITSGTSTYYADSVKGRFTISRDNAKNTVYLQMNSLKPEDTAVYYCAAEASHYYYNAYPSYGGSDYWGQGTQVNVSS	low polyreactivity
QVQLVESGGGLVQAGGSLRLSCAASGSIIILYAMGWYRQAPGKERELVAAISLRGGRTYYADSVKGRFTISRDNAKNTVYLQMNSLKPEVTSVYYCATPVTNGFDYWGQGTQVTVSS	high polyreactivity

Sequence	polyreactivity (PSR sort gate)
QVQLVESGGGLVQAGGSLRLSCAASGSIIKRNAKGWYRQAPGKERELVASISSGGSTKYADSVKGRFTISRDNAKNTVYLQMNSLKPEDTAVYYCAKRSSQTRRAYDYWGQGTQVTVSS	low polyreactivity
QVQLVESGGGLVQAGGSLRLSCAASGSIINIYAMGWYRQAPGKERELVATITGIADSTYYADSVKGRFTISRDNAQNSVYLQMNSLKPEETAVYFCAADKYVAEYDYWGQGSQVTVSS	low polyreactivity
QVQLVESGGGLVQAGGSLRLSCAASGSIIPLYAMGWYRQAPGKERELVAAISRRGGSTYYADSVKGRFTISRDNAKNTVYLQMNSLKPEDTAVYYCSVDSPSPSRGPRFYYWGQGTQVTVSS	high polyreactivity
QVQLVESGGGLVQAGGSLRLSCAASGSIIRRYAMGWYRQAPGKERELVAAISSGGSTYYADSVKGRFTISRDNAKNTVYLEMNSLKPVDTAVYYCAAAQRVSWLFGYWGQGTQVTVSS	high polyreactivity
QVQLVESGGGLVQAGGSLRLSCAASGSIISAYVMGWYRQAPGKERELVAAITRSGGSTYYADSVKGRFTISRDNAKNTVYLQMNSLTPEDTAVYYCAAKSIIRPYAPRRDDMDYWGQGTQVTVSS	low polyreactivity
QVQLVESGGGLVQAGGSLRLSCAASGSIISGYAMGLDRQARGKERDLVAAISSGGRTKYADSVKGRFTISRDNAKNTVYLQMNSLKPEDTAVYYCNVSYLVYRWIFGWSLDYWGQGTQVTVSS	low polyreactivity
QVQLVESGGGLVQAGGSLRLSCAASGSIISSNAMGWYRQAPGKEREMVAAITWSGGSTYYADSVKGRFTNSRDNAKNTVYLQMNSLKPEDTAVYYCAADQWRYDGSFTGYGYWGQGTQVTVSS	low polyreactivity
QVQLVESGGGLVQAGGSLRLSCAASGSIITHNTMGWYRQAPGKERELVDSIDSGASTNYADSVKGGFTISRDNAKNTVYLQMNSVKPEDTAVYYCAADVAKFRYRDDYWGQGTQVTVAS	low polyreactivity
QVQLVESGGGLVQAGGSLRLSCAASGSIITWNAMGWYRQAPGKERELVAALDWDGGSTYYADSVKGRFTISRDNAKNTVYFQMNRLKPEDTAVYYCAATYGWYTGRYPSGHYYYWGQGTQVTVSS	low polyreactivity
QVQLVESGGGLVQAGGSLRLSCAASGSIIVRYAMGWYRQAPGKERELVAAISWSGGRTYYADSVKGRFTISRDNAKNTVYLQMNSLKPEDTAVYYCAADSSVRYRDTEDYWGQGTQVTVSS	low polyreactivity
QVQLVESGGGLVQAGGSLRLSCAASGSIIVRYAMGWYRQAPGKERELVAAISWSGGRTYYADSVKGRFTISRDNAKNTVYLQMNSLKPEDTAVYYCAKRQGGRKYVRYEYDSWGQGTQVTVSS	low polyreactivity
QVQLVESGGGLVQAGGSLRLSCAASGSIIVYNTMGWYRQAPGKERELVAAITVRDDSTYYADSVKGRFTISRDYAKNTVYLQMNSLNPEDTAVYYCNARGYFLIGRDYWGQGTQVTVSS	low polyreactivity
QVQLVESGGGLVQAGGSLRLSCAASGSIIWLYAMGWYRQAPGKERELVAAISSGGSTYYADSVKGRFTISRDNAKNTVYLQMNSLKPEDTAVYYCAATYSSFRRYPGAHYRFGYWGQGSQVTVSS	high polyreactivity
QVQLVESGGGLVQAGGSLRLSCAASGSIIWRNTMGWYRQAPGKESELVARITGRGGRTNYADSVKGRFTISRDNAKNTVYLQMNSLKPEDTAVYYCAAAYPSVAYSYRYDYWGQGTQVTVSS	high polyreactivity
QVQLVESGGGLVQAGGSLRLSCAASGSIIWYYAMVWYRQAPGIERELGAAMTGTGGNTYYADSVKGRFTLSRDNAKNTVYLQMNSLKPEDTAVYYCDVRAYPSYPRGVYAYYYWGHGTQVTVSS	high polyreactivity
QVQLVESGGGLVQAGGSLRLSCAASGSIIYANAMGWYRQAPGKEREFVATITDSGAITYYADSVKGRFTISRDNAKNTVYLQMISLKPEDTAVYYCNKDLVVYSVPTHDYDYWGQGTQVTVSS	low polyreactivity
QVQLVESGGGLVQAGGSLRLSCAASGSIIYAYAMGWYRQAPGKERELVAGIRDGGSTYYADSVKCRFTISRDNAKNTVYLQMNSLKPEDTAVYYCAAGPRIRDDYWGQGTQVTVSS	low polyreactivity
QVQLVESGGGLVQAGGSLRLSCAASGSIIYGYAMGWYRQAPGKERELVASISSGGSTNYADSVKGRFTISRDNAKNTVYLQMNSLKPEDTAVYYCAAYFQRSGFSFRLRGQGTQVTVSS	high polyreactivity
QVQLVESGGGLVQAGGSLRLSCAASGSIIYRNAMGWYRQAPGKERELDAAISYSGTSTNYADSVKGRFTISRDNAKNTVYLQMNSLKPEDTAVYYCAARGFPHRRHSLYDYWGQGTHVTVSS	low polyreactivity
QVQLVESGGGLVQAGGSLRLSCAASGSILAAYAKGWYRQAPGKERELVAAISLDDGSTYYADSVKGRFTISRDNAKNTVYFQMNSLKPVDTAVYYCAADYYVRSQLLYATSGNYWGQGTQVTVTS	high polyreactivity
QVQLVESGGGLVQAGGSLRLSCAASGSILAGYAMGWYRQAPGKERELVAAITGGYVRSYYADSVKGRFTISRDNAKNTDYLQMNSLKPEDTAVYYCAATWGSVQKGTYYYWGQGTQVTVSS	low polyreactivity
